Experimental data: patent publication US20250186594A1 (BRIGHT PEAK THERAPEUTICS, published 2025)

T1: Fc fused human IL-18Rα (human, UniProt Q13478 19-329, limits assumed)
T1 construct: also called IL-18Rα monomer; human IL-18 receptor alpha (CD218a); not shown: Fc
T1 sequence (looked up): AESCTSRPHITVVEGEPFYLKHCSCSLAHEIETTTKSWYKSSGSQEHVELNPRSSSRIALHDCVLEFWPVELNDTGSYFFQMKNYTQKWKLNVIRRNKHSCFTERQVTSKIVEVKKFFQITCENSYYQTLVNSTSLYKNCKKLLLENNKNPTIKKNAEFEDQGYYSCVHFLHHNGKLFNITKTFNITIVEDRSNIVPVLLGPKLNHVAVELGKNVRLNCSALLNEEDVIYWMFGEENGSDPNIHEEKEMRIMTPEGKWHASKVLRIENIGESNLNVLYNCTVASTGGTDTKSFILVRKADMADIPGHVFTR

T2: IL-18Rα/β heterodimer (Fc fused human IL-18Rα mixed with Fc fused human IL-18Rβ) (human, UniProt Q13478 19-329; O95256 20-356, limits assumed)
T2 construct: Alpha and beta Fc fusions were mixed and pre-incubated for 30 min before capture on anti-human IgG; also called alpha/beta heterodimer IL-18 receptor; heterodimeric human IL-18 receptor alpha (CD218a) and IL-18R accessory protein (IL-18RAP/CDw218b); not shown: Fc
T2 sequence (looked up) 1: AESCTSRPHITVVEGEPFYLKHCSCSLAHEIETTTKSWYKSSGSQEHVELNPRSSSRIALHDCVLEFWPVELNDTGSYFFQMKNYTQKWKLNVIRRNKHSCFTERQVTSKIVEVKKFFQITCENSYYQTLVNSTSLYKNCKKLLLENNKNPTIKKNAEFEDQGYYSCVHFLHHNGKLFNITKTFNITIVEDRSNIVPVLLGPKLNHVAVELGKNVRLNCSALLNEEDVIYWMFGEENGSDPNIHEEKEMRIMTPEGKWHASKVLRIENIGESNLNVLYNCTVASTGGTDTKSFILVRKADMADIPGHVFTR
T2 sequence (looked up) 2: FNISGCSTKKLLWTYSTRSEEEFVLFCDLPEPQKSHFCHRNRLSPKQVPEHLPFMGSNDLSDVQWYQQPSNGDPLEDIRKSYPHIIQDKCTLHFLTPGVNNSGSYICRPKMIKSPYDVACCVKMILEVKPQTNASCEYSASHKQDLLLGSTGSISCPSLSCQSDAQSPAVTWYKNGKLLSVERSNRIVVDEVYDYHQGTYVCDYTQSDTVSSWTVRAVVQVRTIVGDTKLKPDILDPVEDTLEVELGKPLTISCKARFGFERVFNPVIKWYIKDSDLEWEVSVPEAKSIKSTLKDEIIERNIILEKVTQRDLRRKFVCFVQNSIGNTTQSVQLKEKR

T3: IL-18 receptor (IL-18R) on HEK-Blue IL18R reporter cells (UniProt Q13478 19-541; O95256 20-599, limits assumed)
T3 sequence (looked up) 1: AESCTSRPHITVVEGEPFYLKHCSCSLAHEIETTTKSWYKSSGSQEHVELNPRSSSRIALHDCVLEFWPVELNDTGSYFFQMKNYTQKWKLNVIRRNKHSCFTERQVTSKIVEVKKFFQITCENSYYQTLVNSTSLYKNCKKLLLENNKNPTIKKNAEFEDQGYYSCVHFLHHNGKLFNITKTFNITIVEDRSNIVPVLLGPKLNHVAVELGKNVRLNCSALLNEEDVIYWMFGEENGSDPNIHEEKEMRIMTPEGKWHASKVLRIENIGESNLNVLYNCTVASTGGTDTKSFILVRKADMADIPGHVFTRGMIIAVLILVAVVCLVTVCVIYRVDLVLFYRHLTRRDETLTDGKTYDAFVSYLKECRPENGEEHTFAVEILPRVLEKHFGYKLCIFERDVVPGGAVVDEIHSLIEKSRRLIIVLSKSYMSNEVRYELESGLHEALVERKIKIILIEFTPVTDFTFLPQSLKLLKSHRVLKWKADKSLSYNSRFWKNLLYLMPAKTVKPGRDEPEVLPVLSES
T3 sequence (looked up) 2: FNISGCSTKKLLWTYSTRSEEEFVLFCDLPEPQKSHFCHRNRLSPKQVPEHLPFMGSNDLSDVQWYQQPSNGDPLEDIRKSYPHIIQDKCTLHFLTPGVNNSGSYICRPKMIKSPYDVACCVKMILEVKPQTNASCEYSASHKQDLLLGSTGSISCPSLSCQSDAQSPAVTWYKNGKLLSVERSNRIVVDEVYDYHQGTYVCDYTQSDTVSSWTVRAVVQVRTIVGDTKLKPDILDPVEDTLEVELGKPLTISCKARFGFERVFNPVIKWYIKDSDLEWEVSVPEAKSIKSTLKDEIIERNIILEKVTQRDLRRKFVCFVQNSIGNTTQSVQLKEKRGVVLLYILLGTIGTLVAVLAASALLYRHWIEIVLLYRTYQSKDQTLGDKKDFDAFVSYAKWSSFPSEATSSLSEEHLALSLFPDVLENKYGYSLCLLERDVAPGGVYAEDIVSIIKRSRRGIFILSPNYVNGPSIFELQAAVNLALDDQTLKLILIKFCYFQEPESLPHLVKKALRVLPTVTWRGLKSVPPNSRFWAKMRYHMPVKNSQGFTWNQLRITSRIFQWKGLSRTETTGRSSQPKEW


Columns and labels:
Fc fused human IL-18Rα = target: T1, Fc fused human IL-18Rα; assay: SPR, Fc-IL-18Rα captured, 1:1 fit
Method: (§1) The interaction of the wild type and of modified IL-18 polypeptides with human IL-18 receptor subunits are measured with Surface Plasmon Resonance (SPR) technology. Anti-human IgG antibodies are bound by amine coupling onto a CM5 chip to capture 6 µg/mL of Fc fused human IL-18Rα, […] of Fc fused human IL-18Rβ, or […] of Fc fused human IL-18BP isoform a (IL-18BPa) for 30 min before capture. In other settings, […] of alpha and beta IL-18 receptors are mixed and pre-incubated for 30 min before capture of the alpha/beta heterodimer IL-18 receptor.
(§2) The kinetic binding of the IL-18 analytes are measured with a Biacore 8K instrument in two fold serial dilutions starting at […] down to 0.98 nM. Regeneration of the surface back to amine coupled anti IgG antibody is done after every concentration of analyte. To measure the protein association to the receptors, the samples are injected with a flow rate of […] for 60 s, followed by 300 s buffer only to detect the dissociation. The used running buffer is 1×PBS with 0.05% Tween20. The relative response units (RU, Y-axis) are plotted against time (s, X-axis) and analyzed in a kinetic 1:1 binding model for the monomer receptor binding and for the binding to the IL-18BP. A kinetic heterogenous ligand fit model is applied for the alpha/beta heterodimer binding.

[1] = target: T2, IL-18Rα/β heterodimer (Fc fused human …); assay: SPR, Fc-IL-18Rα/β captured, heterogeneous ligand fit
Method: as §1, §2

[2] = target: T3, IL-18 receptor (IL-18R) on HEK-Blue …; assay: cell-based or functional assay

Binder	Kd (Fc fused human IL-18Rα)	koff (Fc fused human IL-18Rα)	kon (Fc fused human IL-18Rα)	Kd [1]	koff [1]	kon [1]	EC50, HEK-Blue IL18R reporter [2]
IL-18 variant SEQ ID NO: 61 with 30 kDa PEG (E6K, C38A, K53A, C76A, C68-30kPEG) (ligand, 30 kDa PEG on Cys 68 (C68-30kPEG), also called 61 + PEG) YFGKLKSKLSVIRNLNDQVLFIDQGNRPLFEDMTDSDARDNAPRTIFIISMYADSQPRGMAVTISVKCEKISTLSAENKIISFKEMNPPDNIKDTKSDIIFFQRSVPGHDNKMQFESSSYEGYFLACEKERDLFKLILKKEDELGDRSIMFTVQNED	~1 µM	0.0288 s⁻¹	28700 M⁻¹ s⁻¹	0.0155 µM	0.000589 s⁻¹	38100 M⁻¹ s⁻¹	
IL-18 variant SEQ ID NO: 60 with 30 kDa PEG (E6K, C38Q, K53A, C68-30kPEG) (ligand, 30 kDa PEG on Cys 68 (C68-30kPEG), also called 60 + PEG) YFGKLKSKLSVIRNLNDQVLFIDQGNRPLFEDMTDSDQRDNAPRTIFIISMYADSQPRGMAVTISVKCEKISTLSCENKIISFKEMNPPDNIKDTKSDIIFFQRSVPGHDNKMQFESSSYEGYFLACEKERDLFKLILKKEDELGDRSIMFTVQNED	0.345 µM	0.0195 s⁻¹	66300 M⁻¹ s⁻¹	0.0133 µM	0.000789 s⁻¹	68300 M⁻¹ s⁻¹	
IL-18 variant SEQ ID NO: 30 with 30 kDa PEG (E6K, V11I, C38A, K53A, T63A, C76A, C127A, C68-30kPEG) (ligand, 30 kDa PEG on Cys 68 (C68-30kPEG), also called 30 + PEG30; 30 + PEG) YFGKLKSKLSIIRNLNDQVLFIDQGNRPLFEDMTDSDARDNAPRTIFIISMYADSQPRGMAVAISVKCEKISTLSAENKIISFKEMNPPDNIKDTKSDIIFFQRSVPGHDNKMQFESSSYEGYFLAAEKERDLFKLILKKEDELGDRSIMFTVQNED	0.77 µM	0.0842 s⁻¹	125000 M⁻¹ s⁻¹	0.0157 µM	0.000618 s⁻¹	39400 M⁻¹ s⁻¹	0.00023 µM

These reach a lower Kd (Fc fused human IL-18Rα). Values come first.

Kd (Fc fused human IL-18Rα)	koff (Fc fused human IL-18Rα)	kon (Fc fused human IL-18Rα)	Kd [1]	koff [1]	kon [1]	EC50, HEK-Blue IL18R reporter [2]	Binder
0.158 µM	0.0748 s⁻¹	475000 M⁻¹ s⁻¹	0.0022 µM	0.000594 s⁻¹	269000 M⁻¹ s⁻¹		IL-18 variant SEQ ID NO: 30 with 5 kDa PEG (E6K, V11I, C38A, K53A, T63A, C76A, C127A, C68-5kPEG) (ligand, 5 kDa PEG on Cys 68 (C68-5kPEG), also called 30 + PEG5) YFGKLKSKLSIIRNLNDQVLFIDQGNRPLFEDMTDSDARDNAPRTIFIISMYADSQPRGMAVAISVKCEKISTLSAENKIISFKEMNPPDNIKDTKSDIIFFQRSVPGHDNKMQFESSSYEGYFLAAEKERDLFKLILKKEDELGDRSIMFTVQNED
0.075 µM	0.0133 s⁻¹	95200 M⁻¹ s⁻¹	0.0023 µM	0.000816 s⁻¹	535000 M⁻¹ s⁻¹	0.00053 µM	IL-18 variant SEQ ID NO: 57 (E6K, C38S, K53A) (ligand) YFGKLKSKLSVIRNLNDQVLFIDQGNRPLFEDMTDSDSRDNAPRTIFIISMYADSQPRGMAVTISVKCEKISTLSCENKIISFKEMNPPDNIKDTKSDIIFFQRSVPGHDNKMQFESSSYEGYFLACEKERDLFKLILKKEDELGDRSIMFTVQNED
0.0639 µM	0.0424 s⁻¹	664000 M⁻¹ s⁻¹	0.00124 µM	0.00149 s⁻¹	1.21e+06 M⁻¹ s⁻¹	0.00017 µM	IL-18 variant SEQ ID NO: 62 (E6K, C38A, K53A, C127A) (ligand) YFGKLKSKLSVIRNLNDQVLFIDQGNRPLFEDMTDSDARDNAPRTIFIISMYADSQPRGMAVTISVKCEKISTLSCENKIISFKEMNPPDNIKDTKSDIIFFQRSVPGHDNKMQFESSSYEGYFLAAEKERDLFKLILKKEDELGDRSIMFTVQNED
